One data set has as its system HIV. The conditions noted are these: greater activity; cited from earlier work.
Data set [1] concerns Neutrokine-alpha expression on monocytes. In words: FACS of Neutrokine-alpha cell surface expression with mAb 2E5. In kind it is cell-based, human. The conditions noted are these: IFN-gamma 100 U/mL for three days. As to the method: The expression profile of Neutrokine-alpha was assessed by Northern blot (FIG. 7B) and flow cytometric analyses (Table V and FIGS. 8A, 8B and 8C). Neutrokine-alpha is encoded by a single 2.6 kb mRNA found at high levels in peripheral blood leukocytes, spleen, lymph node and bone marrow. Lower expression levels were detected in placenta, heart, lung, fetal liver, thymus and pancreas. Among a panel of cell lines, Neutrokine-alpha mRNA was detected in HL-60 and […], but not in Raji, HeLa, or MOLT-4 cells. […] A concomitant increase in Neutrokine-alpha-specific mRNA was also detected (FIG. 8C). By contrast, Neutrokine-alpha was not expressed on freshly isolated peripheral blood granulocytes, T cells, B cells, or NK cells.
(§1) FACS analysis. Neutrokine-alpha expression was assessed on human cell lines, freshly isolated normal peripheral blood nucleated cells, and in vitro cultured monocytes, a mouse anti-human Neutrokine-alpha mAb 2E5 (IgG1) followed by PE-conjugated F(ab′)2 goat antibody to mouse IgG (CALTAG Laboratories, Burlingame, Calif.). Cells were analyzed using a FACScan (Becton Dickinson Immunocytometry Systems, San Jose, Calif.) with propidium iodide to exclude dead cells. Neutrokine-alpha binding was assessed using rNeutrokine-alpha biotinylated with a N-hydroxysuccinimidobiotin reagent (Pierce, Rockford, Ill.) followed by PE-conjugated streptavidin (Dako Corp, Glostrup, Denmark).

Data set [2] relates to Neutrokine-alpha expression in monocytes and macrophages. Description: cytokine effect on Neutrokine-alpha expression and release in monocytes and macrophages. In kind it is cell-based. Particulars: single cytokine, in vitro.
Details of data set [3]: species or system BALB/c mice. Particulars: mouse. On the procedure: Neutrokine-alpha was radiolabeled with ^125I and injected intravenously into BALB/c mice. Three doses and 4 timepoints over a 24-hr period were studied. Biodistribution was measured by direct counting of the radioactivity in dissected whole organs or tissues and by whole body quantitative autoradiography (QAR).

Data set [4] deals with T1, Neutrokine-alpha protein (Homo sapiens, UniProt Q9Y275).
Method: A Phase 2, multi-center, randomized, double-blind, placebo-controlled study was performed in subjects with RA. Subjects were randomized into 4 treatment groups (placebo, 1 mg/kg, 4 mg/kg and 10 mg/kg).
An ACR20 response is defined as at least a 20% reduction in tender joint count and swollen joint count, in addition to an improvement of at least 20% on three of five other assessments of symptoms or disease manifestations (i.e., patient pain assessment, patient global assessment, physician global assessment, patient self-assessed disability, acute-phase reactant [ESR or CRP]).
The target in data set [5] is T1, Neutrokine-alpha protein. The source holds these as a separate data set.
Method: 449 subjects with SLE by ACR criteria (Tan et al., Arthritis Rheum. 25:1271-7, (1982); and Hochberg et al., Arthritis Rheum. 40:1725, (1997)) and SELENA SLEDAI score ≧4 at screening were dosed.
The next data set concerns human tonsillar B cells. In words: B lymphocyte co-stimulatory proliferation assay (3H-thymidine). The conditions noted are these: after biotinylation. In kind it is cell-based. On the procedure: Purified recombinant Neutrokine-alpha (“rNeutrokine-alpha”) was assessed for its ability to induce activation, proliferation, differentiation or death in numerous cell based assays involving B cells, T cells, monocytes, NK cells, hematopoietic progenitors, and a variety of cell types of endothelial and epithelial origin. […] A dose-dependent response is readily observed as the amount of crosslinking agent increases in the presence of a fixed concentration of either 1L2 or rNeutrokine-alpha.
B lymphocyte proliferation assay. […] The resulting cell population was routinely greater than 95% B cells as assessed by expression of CD19 and CD20. […] Proliferation was quantitated by a 20 h pulse (1 microCi/well) of ^3H-thymidine (6.7 Ci/mM) beginning 72 h post factor addition.
In Vitro assay—Purified Neutrokine-alpha and/or Neutrokine-alphaSV protein, or truncated forms thereof, is assessed for its ability to induce activation, proliferation, differentiation or inhibition and/or death in B-cell populations and their precursors. […] Novel synergizing agents can be readily identified using this assay. […] The resulting cell population is greater than 95% B cells as assessed by expression of CD45R(B220). […] Proliferation or inhibition is quantitated by a 20 h pulse (1 uCi/well) with ^3H-thymidine (6.7 Ci/mM) beginning 72 h post factor addition. […]

Data set [6] relates to Neutrokine-alpha receptor. Description: FACS binding of biotinylated Neutrokine-alpha to blood cells and cell lines. Details: species or system human.
Source text: In an attempt to correlate the specific biological activity on B cells with receptor expression, purified Neutrokine-alpha was biotinylated. […] In contrast, biotinylated Neutrokine-alpha bound peripheral CD20^+ B cells. Receptor expression was also detected on the B cell tumor lines REH, ARH-77, Raji, Namalwa, RPMI 8226, and IM-9 but not any of the myeloid-derived lines tested including THP-1, HL-60, K-562, and U-937. Similar results were also obtained using a biologically active FLAG-tagged Neutrokine-alpha protein instead of the chemically modified biotin-Neutrokine-alpha. […] It remains to be shown whether cellular activation may induce expression of Neutrokine-alpha receptors on peripheral blood cells, other normal cell types or established cell lines.
as §1
(A flow cytometer gives signals particle by particle.)

The subject of another data set is B cells. In words: Neutrokine-alpha mediated B cell proliferation, enhancement by cytokines. The format is cell-based. The conditions noted are these: observed by the inventors.
[7] abbreviates: week 52, all treatment groups combined, reduction.

Like-named read-outs stand apart in the source and are kept apart here.

T1 sequence (Q9Y275 134-285 limits assumed): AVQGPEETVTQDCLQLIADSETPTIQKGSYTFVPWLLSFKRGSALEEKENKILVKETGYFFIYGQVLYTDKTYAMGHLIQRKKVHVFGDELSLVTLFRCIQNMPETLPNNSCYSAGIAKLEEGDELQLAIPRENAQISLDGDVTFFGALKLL

Consider `C[C@H](Sc1nc(N)cc(Cl)n1)c1cc2ccoc2cn1` [PNU-142721], for which the “activity relative to delavirdine” value with HIV was 20- to 50 fold.

As to `CC[C@H]1C(=O)Nc2ccc(F)cc2N1C(=O)OC(C)C` [GW-420867X], the “activity relative to HBY097” value in the data set on HIV is 25 fold.

As to `Nc1nc(=O)n([C@@H]2CS[C@H](CO)O2)cc1F` [COVIRACIL, emtricitabine], the “activity in vitro relative to lamivudine (3TC)” value with HIV is 3- to 10 fold.

Consider IFN-gamma: cytokine, for which the “upregulation of Neutrokine-alpha expression on resting monocytes” value in [1] is on record as “approximately 4 fold”. The “cell surface expression of Neutrokine-alpha in monocytes and macrophages” value (from here on “cell surface expression”) in data set [2] is reported as “enhance”.

In the case of “radiolabeled Neutrokine-alpha: Neutrokine-alpha (amino acids 134-285 of SEQ ID NO:2) radiolabeled with 125I”, in [3], the “in vivo targeting specificity” value is listed as “high in vivo targeting specificity for lymphoid tissues”. In addition, in [3] (in vivo), the “QAR signal in liver and kidney” value was “no longer had observable levels”; the “QAR signal in spleen, lymph nodes and GALT” value was “still strongly positive”. Moreover, in [3] (in vivo, iv, 0.01 mg/kg, 3 h), the “concentration of radioactivity in kidney” value is ~5 % injected dose (ID)/g, the “concentration of radioactivity in liver” value was ~5 % injected dose (ID)/g, the “concentration of radioactivity in lymph node” value was 23 % injected dose (ID)/g and the “concentration of radioactivity in spleen” value is reported as 63 % injected dose (ID)/g.

As for “belimumab: an antibody that neutralizes Neutrokine-alpha protein”, in the data set with Neutrokine-alpha protein [4] (1 mg/kg treatment group, 24 weeks (p=0.0097)), the “ACR20 response versus placebo” value is “statistically superior”. The ACR20 response entry with Neutrokine-alpha protein [4] (Week 48, extension period) is “approximately 40%”. For the same molecule, the “ACR20 response versus placebo” value in the data set with Neutrokine-alpha protein [4] (all active treatment groups combined, 24 weeks (p=0.0213)) was “statistically superior”. Also, the “CD20+ B-cells, naïve B-cells, activated B-cells and RF” value with Neutrokine-alpha protein [4] (biological activity) is listed as “statistically significant reductions”. Also, the “decrease of serum IgG” value with Neutrokine-alpha protein [5] (belimumab-treated arms) is 10%. Besides, in the data set with Neutrokine-alpha protein [5] (by week 16 through week 52, all active vs. placebo), the PGA result is on record as “improved”. In the data set with Neutrokine-alpha protein [5] (in vivo), the “plasma and memory cell populations” value is reported as “preserved”; the “primary efficacy endpoints (percent reduction in SS score at week 24, time to flare over 52 weeks)” value is “did not reach statistical significance”; the “safety, including adverse events, AE severity, infections or lab toxicity vs. placebo” value was “No clinically significant differences”; the “severe infusion reaction events” value was found to be 1. The subjects with pleurisy with Neutrokine-alpha protein [5] (in vivo) is 3.3%. The “increase of C4” value with Neutrokine-alpha protein [5] (low baseline C4, belimumab-treated arms) came to 33%. Also, the “anti-dsDNA+ subjects converted to negative” value with Neutrokine-alpha protein [5] (week 52) came to 14.5%. For the same molecule, in the data set with Neutrokine-alpha protein [5] (week 52, ANA+ subjects), the SS score result was “significantly reduced”. For the same molecule, in the data set with Neutrokine-alpha protein [5] (setting [7]), the “median percent change in CD20+ B cells” value came to 54% and the “median percent change in plasmacytoid B cells (CD20+/CD138+)” value came to 62%. In the data set with Neutrokine-alpha protein [5] (week 52, baseline positive), the “reduction of anti-dsDNA Ab” value worked out at 30%. Further, in the data set with Neutrokine-alpha protein [5] (week 52, reduction), the “median percent change in activated B-cells (CD20+/CD69+ B cells)” value turned out to be 70%. The SLE flares result with Neutrokine-alpha protein [5] (weeks 24-52 using a 24 week baseline) is reported as “decreased”.

Take “biotinylated Neutrokine-alpha: purified Neutrokine-alpha biotinylated with N-hydroxysuccinimidobiotin reagent”: in the data set with human tonsillar B cells, the “biological function in the standard B cell proliferation assays” value is given as “retained biological function”. The “receptor expression (binding of biotinylated Neutrokine-alpha)” value was “detected” in data set [6] (B cell tumor lines REH, ARH-77, Raji, Namalwa, RPMI 8226, IM-9) and “not any” in data set [6] (myeloid-derived lines THP-1, HL-60, K-562, U-937). Besides, the “binding of biotinylated Neutrokine-alpha” value in [6] (T cells, monocytes, NK cells and granulocytes of human peripheral blood) is on record as “undetectable”; in data set [6] (peripheral CD20+ B cells), “bound”.

B1: IL-10: cytokine (protein, UniProt P22301 19-178, looked up)
Interleukin-10: SPGQGTQSENSCTHFPGNLPNMLRDLRDAFSRVKTFFQMKDQLDNLLLKESLLEDFKGYLGCQALSEMIQFYLEEVMPQAENQDPDIKAHVNSLGENLKTLRLRLRRCHRFLPCENKSKAVEQVKNAFNKLQEKGIYKAMSEFDIFINYIEAYMTMKIRN
B1: in data set [2], the “cell surface expression” value is listed as “enhance”. In addition, the “effect on Neutrokine-alpha mediated B cell proliferation” value in the data set with B cells is “enhance”.

B2: IL-4: cytokine (protein, UniProt P05112 25-153, looked up)
Interleukin-4: HKCDITLQEIIKTLNSLTEQKTLCTELTVTDIFAASKNTTEKETFCRAATVLRQFYSHHEKDTRCLGATAQQFHRHKQLIRFLKRLDRNLWGLAGLNSCPVKEANQSTLENFLERLKTIMREKYSKCSS
In the case of B2, the “cell surface expression” value in data set [2] is “decreased”. The “effect on Neutrokine-alpha mediated B cell proliferation” value in the data set on B cells is listed as “enhance”.

(Values after patent US8211649B2, “Methods of diagnosing and prognosing hodgkin's lymphoma” (Human Genome Sciences, Inc., priority 2006, dated 2012).)
